The numbers were not newly measured in patent US20200069786A1, “COMPOSITION AND PROCESS FOR PREPARING VACCINE” (TREOS BIO ZRT., priority 2018, published 2020), which cites them from elsewhere.

For this data set, the system named is TSA.
[1] abbreviates: TSA expression rate in Cervical cancer.
Setting [2] is: TSA expression rate in LUNG cancer.
[3] abbreviates: TSA expression rate in MELANOMA
[4] abbreviates: TSA expression rate in PROSTATE cancer.
[5] abbreviates: TSA expression rate in LEUKEMIAS
Where [6] appears, read: TSA expression rate in BLADDER cancer.
The mark [7] stands for this setting: TSA expression rate in Esophageal.
Where [8] appears, read: TSA expression rate in GASTRIC cancer.
The mark [9] stands for this setting: TSA expression rate in HEAD and NECK.
Where [10] appears, read: TSA expression rate in LYMPHOMAS
The mark [11] stands for this setting: TSA expression rate in PEDIATRIC

Like-named read-outs stand apart in the source and are kept apart here.

B1: MORC1 (protein, UniProt Q86VD1 1-984, looked up)
MORC family CW-type zinc …: MDDRYPALQRAQLRLDFIHANSTTHSFLFGALAELLDNARDAGAERLDVFSVDNEKLQGGFMLCFLDDGCGMSPEEASDIIYFGRSKKRLSTLKFIGQYGNGLKSGSMRIGKDFILFTKKEETMTCVFFSQTFCEEESLSEVVVPMPSWLIRTRESVTDDPQKFAMELSIIYKYSPFKTEAELMQQFDVIYGKCGTLLVIYNLKLLLNGEPELDVKTDKEDILMAGALEDFPARWSFRAYTSVLYFNPWMRIFIQAKRVKTKHLCYCLYRPRKYLYVTSSFKGAFKDEVKKAEEAVKIAESILKEAQIKVNQCDRTSLSSAKDVLQRALEDVEAKQKNLKEKQRELKTARTLSLFYGVNVENRSQAGMFIYSNNRLIKMHEKVGSQLKLKSLLGAGVVGIVNIPLEVMEPSHNKQEFLNVQEYNHLLKVMGQYLVQYCKDTGINNRNLTLFCNEFGYQNDIDVEKPLNSFQYQRRQAMGIPFIIQCDLCLKWRVLPSSTNYQEKEFFDIWICANNPNRLENSCHQVECLPSIPLGTMSTISPSKNEKEKQLRESVIKYQNRLAEQQPQPQFIPVDEITVTSTCLTSAHKENTKTQKIRLLGDDLKHESLSSFELSASRRGQKRNIEETDSDVEYISETKIMKKSMEEKMNSQQQRIPVALPENVKLAERSQRSQIANITTVWRAQPTEGCLKNAQAASWEMKRKQSLNFVEECKVLTEDENTSDSDIILVSDKSNTDVSLKQEKKEIPLLNQEKQELCNDVLAMKRSSSLPSWKSLLNVPMEDVNLSSGHIARVSVSGSCKVASSPASSQSTPVKETVRKLKSKLREILLYFFPEHQLPSELEEPALSCELEQCPEQMNKKLKMCFNQIQNTYMVQYEKKIKRKLQSIIYDSNTRGIHNEISLGQCENKRKISEDKLKNLRIKLALLLQKLQLGGPEGDLEQTDTYLEALLKEDNLLFQNNLNKVTIDARHRLPLEKNEKTSEN
With B1, the “TSA Expression Rate (ER)” value (BREAST) is 0%, the “TSA Expression Rate (ER)” value (OVARIAN) is listed as 14% and the “TSA Expression Rate (ER)” value (THYROID) is given as 0%. Further, the “Expression Rate (ER) %” value (TSA expression rate in CRC) is listed as 0%; the “Expression Rate (ER) %” value under setting [1] was 0%; the “Expression Rate (ER) %” value (TSA expression rate in Kidney) is given as 0%; the “Expression Rate (ER) %” value under setting [2] is reported as 18%; the “Expression Rate (ER) %” value under setting [3] is on record as 19%; the “Expression Rate (ER) %” value under setting [4] is given as 0%.

B2: SCP3a (protein, UniProt Q8IZU3 1-236, looked up)
Synaptonemal complex protein 3: MVSSGKKYSRKSGKPSVEDQFTRAYDFETEDKKDLSGSEEDVIEGKTAVIEKRRKKRSSAGVVEDMGGEVQNMLEGVGVDINKALLAKRKRLEMYTKASLKTSNQKIEHVWKTQQDQRQKLNQEYSQQFLTLFQQWDLDMQKAEEQEEKILNMFRQQQKILQQSRIVQSQRLKTIKQLYEQFIKSMEELEKNHDNLLTGAQNEFKKEMAMLQKKIMMETQQQEIASVRKSLQSMLF
Consider B2, for which, under “OVARIAN”, the “TSA Expression Rate (ER)” value is listed as 25%. Further, the “Expression Rate (ER) %” value under setting [5] is 47%.

B3: MAGE-A1 (protein, UniProt P43355 1-309, looked up)
Melanoma-associated antigen 1: MSLEQRSLHCKPEEALEAQQEALGLVCVQAATSSSSPLVLGTLEEVPTAGSTDPPQSPQGASAFPTTINFTRQRQPSEGSSSREEEGPSTSCILESLFRAVITKKVADLVGFLLLKYRAREPVTKAEMLESVIKNYKHCFPEIFGKASESLQLVFGIDVKEADPTGHSYVLVTCLGLSYDGLLGDNQIMPKTGFLIIVLVMIAMEGGHAPEEEIWEELSVMEVYDGREHSAYGEPRKLLTQDLVQEKYLEYRQVPDSDPARYEFLWGPRALAETSYVKVLEYVIKVSARVRFFFPSLREAALREEEEGV
For the molecule B3, the “TSA Expression Rate (ER)” value by setting is: (BRAIN) 41%; (BREAST) 31%; (HCC) 56%; (LUNG) 42%; (OVARIAN) 24%; (PANCREATIC) 27%. Further, for the setting “THYROID”, the “TSA Expression Rate (ER)” value was 17%. For the same molecule, the “Expression Rate (ER) %” value is reported as 34% under setting [6]; 14% (TSA expression rate in CRC); 17% under setting [1]; 46% under setting [7]; 31% under setting [8]; 23% under setting [9]. Besides, the “Expression Rate (ER) %” value is 11% (TSA expression rate in Kidney); 20% under setting [5]; 9% under setting [10]; 37% under setting [3]; 44% under setting [11]; 13% under setting [4].

B4: EpCAM (protein, UniProt P16422 24-314, looked up)
Epithelial cell adhesion …: QEECVCENYKLAVNCFVNNNRQCQCTSVGAQNTVICSKLAAKCLVMKAEMNGSKLGRRAKPEGALQNNDGLYDPDCDESGLFKAKQCNGTSMCWCVNTAGVRRTDKDTEITCSERVRTYWIIIELKHKAREKPYDSKSLRTALQKEITTRYQLDPKFITSILYENNVITIDLVQNSSQKTQNDVDIADVAYYFEKDVKGESLFHSKKMDLTVNGEQLDLDPGQTLIYYVDEKAPEFSMQGLKAGVIAVIVVVVIAVVAGIVVLVISRKKRMAKYEKAEIKEMGEMHRELNA
For the molecule B4, the “TSA Expression Rate (ER)” value is, setting by setting: (BRAIN) 16%; (BREAST) 76%; (HCC) 41%; (LUNG) 78%; (OVARIAN) 92%; (PANCREATIC) 85%. In addition, the “TSA Expression Rate (ER)” value (THYROID) is on record as 83%. Also, the “Expression Rate (ER) %” value under setting [6] is recorded as 54%; the “Expression Rate (ER) %” value (TSA expression rate in CRC) is 88%; the “Expression Rate (ER) %” value under setting [1] is 36%; the “Expression Rate (ER) %” value under setting [7] is listed as 81%; the “Expression Rate (ER) %” value under setting [8] is reported as 90%; the “Expression Rate (ER) %” value (TSA expression rate in Kidney) is given as 55%. In addition, the “Expression Rate (ER) %” value under setting [4] is recorded as 98%.

B5: MAGE-C1 (protein, UniProt O60732 1-1142, looked up)
Melanoma-associated antigen C1: MGDKDMPTAGMPSLLQSSSESPQSCPEGEDSQSPLQIPQSSPESDDTLYPLQSPQSRSEGEDSSDPLQRPPEGKDSQSPLQIPQSSPEGDDTQSPLQNSQSSPEGKDSLSPLEISQSPPEGEDVQSPLQNPASSFFSSALLSIFQSSPESTQSPFEGFPQSVLQIPVSAASSSTLVSIFQSSPESTQSPFEGFPQSPLQIPVSRSFSSTLLSIFQSSPERTQSTFEGFAQSPLQIPVSPSSSSTLLSLFQSFSERTQSTFEGFAQSSLQIPVSPSFSSTLVSLFQSSPERTQSTFEGFPQSPLQIPVSSSSSSTLLSLFQSSPERTHSTFEGFPQSLLQIPMTSSFSSTLLSIFQSSPESAQSTFEGFPQSPLQIPGSPSFSSTLLSLFQSSPERTHSTFEGFPQSPLQIPMTSSFSSTLLSILQSSPESAQSAFEGFPQSPLQIPVSSSFSYTLLSLFQSSPERTHSTFEGFPQSPLQIPVSSSSSSSTLLSLFQSSPECTQSTFEGFPQSPLQIPQSPPEGENTHSPLQIVPSLPEWEDSLSPHYFPQSPPQGEDSLSPHYFPQSPPQGEDSLSPHYFPQSPQGEDSLSPHYFPQSPPQGEDSMSPLYFPQSPLQGEEFQSSLQSPVSICSSSTPSSLPQSFPESSQSPPEGPVQSPLHSPQSPPEGMHSQSPLQSPESAPEGEDSLSPLQIPQSPLEGEDSLSSLHFPQSPPEWEDSLSPLHFPQFPPQGEDFQSSLQSPVSICSSSTSLSLPQSFPESPQSPPEGPAQSPLQRPVSSFFSYTLASLLQSSHESPQSPPEGPAQSPLQSPVSSFPSSTSSSLSQSSPVSSFPSSTSSSLSKSSPESPLQSPVISFSSSTSLSPFSEESSSPVDEYTSSSDTLLESDSLTDSESLIESEPLFTYTLDEKVDELARFLLLKYQVKQPITKAEMLTNVISRYTGYFPVIFRKAREFIEILFGISLREVDPDDSYVFVNTLDLTSEGCLSDEQGMSQNRLLILILSIIFIKGTYASEEVIWDVLSGIGVRAGREHFAFGEPRELLTKVWVQEHYLEYREVPNSSPPRYEFLWGPRAHSEVIKRKVVEFLAMLKNTVPITFPSSYKDALKDVEERAQAIIDTTDDSTATESASSSVMSPSFSSE
Regarding B5, the “TSA Expression Rate (ER)” value is listed as 13% (BRAIN); 16% (BREAST); 20% (HCC); 20% (OVARIAN); 0% (PANCREATIC); 22% (THYROID). The “Expression Rate (ER) %” value is listed as 27% under setting [6]; 12% under setting [7]; 6% under setting [8]; 15% under setting [9]; 0% (TSA expression rate in Kidney); 70% under setting [5]. The “Expression Rate (ER) %” value is given as 19% under setting [2], 13% under setting [10], 45% under setting [3] and 39% under setting [11].

B6: CRISP2 (protein, UniProt P16562 22-243, looked up)
Cysteine-rich secretory …: KDPAFTALLTTQLQVQREIVNKHNELRKAVSPPASNMLKMEWSREVTTNAQRWANKCTLQHSDPEDRKTSTRCGENLYMSSDPTSWSSAIQSWYDEILDFVYGVGPKSPNAVVGHYTQLVWYSTYQVGCGIAYCPNQDSLKYYYVCQYCPAGNNMNRKNTPYQQGTPCAGCPDDCDKGLCTNSCQYQDLLSNCDSLKNTAGCEHELLKEKCKATCLCENKIY
With B6, the “TSA Expression Rate (ER)” value was 15% (BREAST), 29% (LUNG), 14% (OVARIAN) and 0% (THYROID). For the same molecule, the “Expression Rate (ER) %” value is, setting by setting: (TSA expression rate in CRC) 0%; under setting [1], 17%; under setting [9], 11%; (TSA expression rate in Kidney) 14%; under setting [3], 6%; under setting [4], 38%.

B7: PLAC1 (protein, UniProt Q9HBJ0 23-212, looked up)
Placenta-specific protein 1: QSPMTVLCSIDWFMVTVHPFMLNNDVCVHFHELHLGLGCPPNHVQPHAYQFTYRVTECGIRAKAVSQDMVIYSTEIHYSSKGTPSKFVIPVSCAAPQKSPWLTKPCSMRVASKSRATAQKDEKCYEVFSLSQSSQRPNCDCPPCVFSEEEHTQVPCHQAGAQEAQPLQPSHFLDISEDWSLHTDDMIGSM
Consider B7, for which the “TSA Expression Rate (ER)” value is 4% (BREAST); 41% (HCC); 68% (LUNG); 21% (OVARIAN); 44% (PANCREATIC). The “Expression Rate (ER) %” value runs as follows: (TSA expression rate in CRC) 27%; under setting [4], 100%.
